{"source": "patent US20250154261A1", "about": "(published 2025)", "binders": {"B1": {"name": "ADI-11826 Fab (Fab, V domains shown)", "VH": "EVQLVESGGGLVQPGGSLRLSCAASGFTFPGYWMSWVRQAPGKGLEWVANINQDGSEVYYVDSVKGRFTISRDNAKNSLYLQMNSLRAEDTAVYYCAREANYYGNVGDDYWGQGTLVTVSS", "VL": "DIQMTQSPSSLSASVGDRVTITCRASQSIYNYLNWYQQKPGKAPKLLIYAASSTQSGVPSRFSGSGSGTDFTLTISSLQPEDFATYYCQQAFHVPITFGGGTKVEIK", "notes": "Fab fragment; also called Ab26"}}, "assay_in_all_cases": "SPR captured Fab", "key": {"V domain of human CD33 [1]": {"target": "T1, V domain of human CD33 (human, UniProt P20138 18-139, limits assumed)", "T1 construct": "Whole entry named; also called Human CD33 V domain", "description": "(§1) Kinetics and affinity of a series of Fab fragments of anti-CD33 antibodies with different CD33 variants (human CD33 ECD, cyno CD33 ECD, V-domain of human CD33, C-domain or human CD33 and selected CD33 SNPs) were assessed by surface plasmon resonance using Biacore 8K instrument (GE Healthcare). Anti-Fab antibody was immobilized on a CM5 chip using standard amine coupling chemistry. CD33 FABs were captured on the anti-Fab chip at a density of ˜100 RU. Solutions containing different concentrations of soluble monomeric CD33 or its domains were injected over the captured FABs and control surfaces at 30 μl/min at 37° C. Surfaces were regenerated between cycles by quick injection of 10 mM glycine, pH 1.8. To obtain kinetic rate constants double-referenced data were fit to a 1:1 interaction model using Biacore 8K Evaluation software (GE Healthcare). The equilibrium binding constant KD was determined by the ratio of binding rate constants kd/kₐ."}, "Human CD33 R69G": {"target": "Human CD33 R69G (human, UniProt P20138 18-259)"}, "V domain of human CD33 [2]": {"target": "T1, V domain of human CD33", "remark": "listed apart in the source", "description": "as §1"}, "Human CD33 S128N": {"target": "Human CD33 S128N (human, UniProt P20138 18-259)"}}, "note": "Where two headings read alike, the source gives them in different places.", "data": [{"binder": "B1", "values": [{"measurement": "koff", "setting": "V domain of human CD33 [1]", "result": 0.00225, "unit": "s⁻¹"}, {"measurement": "Kd", "setting": "Human CD33 R69G", "result": 3.83, "unit": "nM"}, {"measurement": "koff", "setting": "Human CD33 R69G", "result": 0.00723, "unit": "s⁻¹"}, {"measurement": "kon", "setting": "Human CD33 R69G", "result": "1.89e+06", "unit": "M⁻¹ s⁻¹"}, {"measurement": "koff", "setting": "V domain of human CD33 [2]", "result": 0.00225, "unit": "s⁻¹"}, {"measurement": "Kd", "setting": "Human CD33 S128N", "result": 2.65, "unit": "nM"}, {"measurement": "koff", "setting": "Human CD33 S128N", "result": 0.00574, "unit": "s⁻¹"}, {"measurement": "kon", "setting": "Human CD33 S128N", "result": "2.17e+06", "unit": "M⁻¹ s⁻¹"}]}]}
